How the values were obtained:
s10_(long) H199Y = experiment: peptide or protein array
s10_(long) H199Y/L207V = experiment: peptide or protein array
[1] = biological target: s10_(long) WT peptide L195[…]212; experiment: peptide or protein array
s10_(long) H199Y/T203F = experiment: peptide or protein array
[2] = biological target: LOO10-GFP (circularly permuted superfolder GFP with strand 10 removed); experiment: other fluorescence titration
[3] = biological target: LOO10-GFP (circularly permuted superfolder GFP with strand 10 removed); experiment: competition experiment followed by fluorescence
[4] = biological target: LOO10-GFP (circularly permuted superfolder GFP with strand 10 removed); experiment: fluorescence complementation

**Q.** “LOO10-GFP (circularly permuted superfolder GFP with strand 10 removed) (domain or fragment)” was tested. Which fold microarray fluorescence compared to WT (s10_(long) H199Y) did it give?
**A.** The fold microarray fluorescence compared to WT was 10 fold.

**Q.** What about the fold microarray fluorescence compared to WT (s10_(long) H199Y/L207V) of the same molecule?
**A.** Its fold microarray fluorescence compared to WT is 3 fold.

**Q.** And the mean microarray fluorescence [1]?
**A.** Its mean microarray fluorescence is 741 FU.

**Q.** And the fold microarray fluorescence compared to WT (s10_(long) H199Y/T203F)?
**A.** Its fold microarray fluorescence compared to WT is 54 fold.

**Q.** NHYLSYQTVLS [s10_(short) T203Y peptide] was tested. Which fold increase in affinity compared to WT [2] did it give?
**A.** The fold increase in affinity compared to WT was 2 fold.

**Q.** How did the fold weaker affinity than WT (approximated) [3] turn out when LPDNHYLSTQTVRSKDPNE [s10 L207R peptide, long format (free 19-mer)] was run?
**A.** The fold weaker affinity than WT (approximated) was > 10 fold.

**Q.** With NHYLSTQTVLS [s10_(short) WT peptide N198…208] as the molecule, how does the fold increase in 520 nm signal on complementation [4] read?
**A.** Its fold increase in 520 nm signal on complementation is 5 fold.

**Q.** With NYYLSTQTVLS [s10_(short) H199Y peptide] as the molecule, how does the fold increase in affinity compared to WT [2] read?
**A.** Its fold increase in affinity compared to WT is 5 fold.

**Q.** How did the fold increase in affinity compared to WT [2] turn out when NYYLSYQTVLS [s10_(short) H199Y/T203Y peptide] was run?
**A.** The fold increase in affinity compared to WT was 9 fold.

From article doi:10.1101/2020.05.20.105668
